Results from article PMC8360832, “Butyryl/Caproyl-CoA:Acetate CoA-transferase: cloning, expression and characterization of the key enzyme involved in medium-chain fatty acid biosynthesis” (Bioscience Reports, 2021).

What was measured:
[1] = tested on: T1, CCCC(=O)SCCNC(=O)CCNC(=O)[C@H](O)C(C)(C)COP(=O)(O)OP(=O)(O)OC[C@H]1O[C@@H](n2cnc3c(N)ncnc32)[C@H](O)[C@@H]1OP(=O)(O)O; test: purified protein; assay type: biochemical, Caproicibacterium lactatifermentans; conditions: 200 mM sodium acetate, 100 mM potassium phosphate pH 7, 25 °C
T1 construct: full-length, N-terminal His tag, pET28a, E. coli BL21 (DE3), Ni-NTA; gene 1344 bp, 49 kDa; predicted active site GGQLDFVLGAYL 342-353; homotetramer in model only

[2] = tested on: T2, CCCCCC(=O)SCCNC(=O)CCNC(=O)[C@H](O)C(C)(C)COP(=O)(O)OP(=O)(O)OC[C@H]1O[C@@H](n2cnc3c(N)ncnc32)[C@H](O)[C@@H]1OP(=O)(O)O; test: purified protein; assay type: biochemical, Caproicibacterium lactatifermentans; conditions: 200 mM sodium acetate, 100 mM potassium phosphate pH 7, 25 °C
T2 construct: full-length, N-terminal His tag, pET28a, E. coli BL21 (DE3), Ni-NTA; gene 1344 bp, 49 kDa; predicted active site GGQLDFVLGAYL 342-353; homotetramer in model only

Sequence of CPB6-CoAT (CCoAT) (Caproicibacterium lactatifermentans; D346H) (chain, as listed by the source D346H): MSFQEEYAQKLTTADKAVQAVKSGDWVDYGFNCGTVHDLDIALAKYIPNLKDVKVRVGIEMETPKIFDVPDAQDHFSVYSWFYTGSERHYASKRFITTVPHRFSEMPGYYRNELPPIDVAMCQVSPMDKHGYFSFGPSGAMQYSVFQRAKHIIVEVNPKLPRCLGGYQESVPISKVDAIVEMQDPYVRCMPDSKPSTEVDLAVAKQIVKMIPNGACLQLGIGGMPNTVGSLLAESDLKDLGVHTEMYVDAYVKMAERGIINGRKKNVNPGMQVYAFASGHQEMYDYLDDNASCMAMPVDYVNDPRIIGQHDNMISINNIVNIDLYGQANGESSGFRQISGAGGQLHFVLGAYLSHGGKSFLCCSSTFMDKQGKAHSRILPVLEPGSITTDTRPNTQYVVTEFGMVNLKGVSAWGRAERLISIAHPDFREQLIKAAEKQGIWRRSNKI
Sequence of CPB6-CoAT (CCoAT) (Caproicibacterium lactatifermentans; A351P) (chain, as listed by the source A351P): as the sequence (chain, as listed by the source D346H) above, with H346D, A351P counted along it
Sequence of CPB6-CoAT (CCoAT) (Caproicibacterium lactatifermentans) (chain, as listed by the source): as the sequence (chain, as listed by the source D346H) above, with H346D counted along it

Substance | Km [1] [µM] | kcat [1] [s⁻¹] | kcat/Km [1] [M⁻¹ s⁻¹] | Km [2] [µM] | kcat [2] [s⁻¹] | kcat/Km [2] [M⁻¹ s⁻¹]
CPB6-CoAT (CCoAT) (Caproicibacterium lactatifermentans) | 537 ± 10 | 0.0968 ± 0.025 | 180 ± 3.33 | 359 ± 5.3 | 0.245 ± 0.015 | 685 ± 3.33
CPB6-CoAT (CCoAT) (Caproicibacterium lactatifermentans; A351P) | 623 ± 4.4 | 0.0498 ± 0.015 | 80 ± 3.33 | 532 ± 2.5 | 0.113 ± 0.02 | 213 ± 8.33
CPB6-CoAT (CCoAT) (Caproicibacterium lactatifermentans; D346H) | 747 ± 2.8 | 0.0217 ± 0.00333 | 28.8 ± 1.67 | 748 ± 7.9 | 0.0707 ± 0.00333 | 94.3 ± 1.67
